Laboratory results taken from the Immune Epitope Database (IEDB).

Assays:
HLA-B*58:01 [1] = test: IEDB peptide-MHC binding, purified MHC/competitive/radioactivity; filed as Kd, often an IC50 or EC50 that approximates it; ≥ and ≤ were set here for values at or beyond the usual limits of such assays
HLA-A*01:01 = test: IEDB peptide-MHC binding, purified MHC/direct/fluorescence; filed as Kd, often an IC50 or EC50 that approximates it; ≥ and ≤ were set here for values at or beyond the usual limits of such assays
HLA-B*44:02 [2] = test: as above
HLA-A*24:02 = test: as above
HLA-B*08:02 = test: as above
HLA-A*31:01 = test: as above
HLA-A*03:01 [3] = test: as above
HLA-B*07:02 = test: as above
HLA-A*02:01 = test: as above
HLA-A*11:01 = test: as above
HLA-B*08:01 = test: as above
HLA-B*58:01 [4] = test: as above
HLA-B*40:01 = test: as above
HLA-B*39:01 [5] = test: as above; settings: source organism: H9N2 subtype Influenza A virus (A/swine/Korea/S83/2004(H9N2))
HLA-B*46:01 [6] = test: as above
HLA-A*69:01 [7] = test: as above
HLA-B*15:01 [8] = test: as above
HLA-B*27:05 = test: as above
HLA-B*44:02 [9] = test: IEDB peptide-MHC binding, purified MHC/competitive/radioactivity; filed as Kd, often an IC50 or EC50 that approximates it; ≥ and ≤ were set here for values at or beyond the usual limits of such assays; settings: source organism: Dengue virus 1 Brazil/97-11/1997
HLA-B*57:01 [10] = test: IEDB peptide-MHC binding, purified MHC/direct/fluorescence; filed as Kd, often an IC50 or EC50 that approximates it; ≥ and ≤ were set here for values at or beyond the usual limits of such assays; settings: source organism: West Nile virus
HLA-A*30:01 = test: as above
HLA-B*48:01 = test: as above; settings: source organism: West Nile virus
HLA-B*18:01 [11] = test: as above
HLA-A*26:01 [12] = test: IEDB peptide-MHC binding, purified MHC/competitive/fluorescence; filed as Kd, often an IC50 or EC50 that approximates it; ≥ and ≤ were set here for values at or beyond the usual limits of such assays
HLA-B*39:01 [13] = test: as above
HLA-A*26:01 [14] = test: IEDB peptide-MHC binding, purified MHC/direct/fluorescence; filed as Kd, often an IC50 or EC50 that approximates it; ≥ and ≤ were set here for values at or beyond the usual limits of such assays
HLA-B*27:03 = test: IEDB peptide-MHC binding, purified MHC/competitive/fluorescence; filed as Kd, often an IC50 or EC50 that approximates it; ≥ and ≤ were set here for values at or beyond the usual limits of such assays; settings: source organism: Mycobacterium tuberculosis variant bovis BCG str. Pasteur 1173P2
HLA-B*57:01 [15] = test: as above; settings: source organism: Mycobacterium tuberculosis variant bovis BCG str. Pasteur 1173P2
HLA-B*15:17 = test: as above; settings: source organism: Mycobacterium tuberculosis variant bovis BCG str. Pasteur 1173P2
HLA-A*03:01 [16] = test: as above; settings: source organism: Mycobacterium tuberculosis variant bovis BCG str. Pasteur 1173P2
HLA-B*51:01 = test: as above; settings: source organism: Mycobacterium tuberculosis variant bovis BCG str. Pasteur 1173P2
HLA-A*02:19 = test: as above; settings: source organism: Mycobacterium tuberculosis variant bovis BCG str. Pasteur 1173P2
HLA-B*46:01 [17] = test: as above; settings: source organism: Mycobacterium tuberculosis variant bovis BCG str. Pasteur 1173P2
HLA-A*68:02 = test: as above; settings: source organism: Mycobacterium tuberculosis variant bovis BCG str. Pasteur 1173P2
HLA-A*69:01 [18] = test: as above; settings: source organism: Mycobacterium tuberculosis variant bovis BCG str. Pasteur 1173P2
HLA-B*15:01 [19] = test: as above; settings: source organism: Mycobacterium tuberculosis variant bovis BCG str. Pasteur 1173P2
HLA-B*18:01 [20] = test: as above; settings: source organism: Mycobacterium tuberculosis variant bovis BCG str. Pasteur 1173P2
HLA-A*29:02 = test: as above; settings: source organism: Mycobacterium tuberculosis variant bovis BCG str. Pasteur 1173P2
HLA-A*24:03 [21] = test: as above
HLA-A*24:03 [22] = test: IEDB peptide-MHC binding, purified MHC/direct/fluorescence; filed as Kd, often an IC50 or EC50 that approximates it; ≥ and ≤ were set here for values at or beyond the usual limits of such assays; settings: source organism: Pseudomonas putida
[23] = source organism: H9N2 subtype Influenza A virus (A/swine/Korea/S83/2004(H9N2))
[24] = source organism: Influenza A virus (A/Puerto Rico/8/34/Mount Sinai(H1N1))
[25] = source organism: West Nile virus
[26] = source organism: Influenza A virus (A/chicken/Vietnam/393/2005(H5N1))
[27] = source organism: Influenza A virus(A/swine/Shandong/fNY/2003(H9N2))
[28] = source organism: Mycobacterium tuberculosis variant bovis BCG str. Pasteur 1173P2
[29] = source organism: Pseudomonas putida
[30] = source organism: Pseudomonas aeruginosa
[31] = source organism: Yersinia pestis

TAAVLLLITH
Kd (HLA-B*58:01 [1]; source organism: Dengue virus 3 Martinique/1243/1999): 0.751 µM

LASAILNAHK
Kd (HLA-B*58:01 [1]; source organism: Dengue virus 4 Dominica/814669/1981): 3.46 µM

HFQKDAKVL
Kd (HLA-A*01:01; [23]): ≥ 20 µM
Kd (HLA-B*44:02 [2]; [23]): ≥ 20 µM
Kd (HLA-A*24:02; [23]): ≥ 20 µM
Kd (HLA-B*08:02; source organism: Influenza A virus(A/swine/Shandong/fZC/2003(H9N2))): ≥ 20 µM
Kd (HLA-A*31:01; [23]): ≥ 20 µM
Kd (HLA-A*03:01 [3]; [23]): ≥ 20 µM
Kd (HLA-B*07:02; [23]): ≥ 20 µM
Kd (HLA-A*02:01; [23]): ≥ 20 µM
Kd (HLA-A*11:01; [23]): ≥ 20 µM
Kd (HLA-B*08:01; [24]): 2.3 µM
Kd (HLA-B*58:01 [4]; [23]): ≥ 20 µM
Kd (HLA-B*40:01; [23]): ≥ 20 µM
Kd (HLA-B*39:01 [5]): 10.4 µM
Kd (HLA-B*46:01 [6]; [23]): ≥ 20 µM
Kd (HLA-A*69:01 [7]; [23]): ≥ 20 µM
Kd (HLA-B*15:01 [8]; [24]): 2.66 µM
Kd (HLA-B*27:05; [23]): ≥ 20 µM

ERSWNSGYDW
Kd (HLA-B*44:02 [9]): 0.856 µM
Kd (HLA-B*58:01 [1]; source organism: Dengue virus 1 Brazil/97-11/1997): 0.0956 µM

LYAVTTAVL
Kd (HLA-A*01:01; [25]): ≥ 20 µM
Kd (HLA-B*44:02 [2]; [25]): ≥ 20 µM
Kd (HLA-B*57:01 [10]): ≥ 20 µM
Kd (HLA-A*31:01; [25]): ≥ 20 µM
Kd (HLA-A*03:01 [3]; [25]): ≥ 20 µM
Kd (HLA-B*58:01 [4]; [25]): ≥ 20 µM
Kd (HLA-B*40:01; [25]): ≥ 20 µM
Kd (HLA-A*30:01; source organism: West Nile virus strain PTRoxo): ≥ 20 µM
Kd (HLA-B*46:01 [6]; [25]): ≥ 20 µM
Kd (HLA-A*69:01 [7]; [25]): ≥ 20 µM
Kd (HLA-B*48:01): ≥ 20 µM
Kd (HLA-B*15:01 [8]; [25]): ≥ 20 µM
Kd (HLA-B*18:01 [11]; [25]): ≥ 20 µM
Kd (HLA-B*27:05; [25]): ≥ 20 µM
Kd (HLA-A*26:01 [12]; [25]): ≥ 20 µM
Kd (HLA-B*39:01 [13]; [25]): 0.459 µM

VLTGNLQTL
Kd (HLA-A*01:01; [26]): ≥ 20 µM
Kd (HLA-B*44:02 [2]; [26]): ≥ 20 µM
Kd (HLA-A*24:02; [26]): ≥ 20 µM
Kd (HLA-B*08:02; [27]): ≥ 20 µM
Kd (HLA-A*31:01; [26]): ≥ 20 µM
Kd (HLA-A*03:01 [3]; [26]): ≥ 20 µM
Kd (HLA-A*26:01 [14]; [27]): ≥ 20 µM
Kd (HLA-B*07:02; [26]): ≥ 20 µM
Kd (HLA-A*11:01; [26]): ≥ 20 µM
Kd (HLA-B*08:01; [26]): ≥ 20 µM
Kd (HLA-B*58:01 [4]; [26]): ≥ 20 µM
Kd (HLA-B*40:01; [26]): ≥ 20 µM
Kd (HLA-B*46:01 [6]; [26]): ≥ 20 µM
Kd (HLA-A*69:01 [7]; [26]): ≥ 20 µM
Kd (HLA-B*15:01 [8]; [26]): ≥ 20 µM
Kd (HLA-B*18:01 [11]; [26]): ≥ 20 µM
Kd (HLA-B*27:05; [26]): ≥ 20 µM

RLAPEPVYT
Kd (HLA-B*27:03): ≥ 20 µM
Kd (HLA-B*57:01 [15]): ≥ 20 µM
Kd (HLA-B*15:17): ≥ 20 µM
Kd (HLA-A*03:01 [16]): ≥ 20 µM
Kd (HLA-A*26:01 [12]; [28]): ≥ 20 µM
Kd (HLA-B*51:01): ≥ 20 µM
Kd (HLA-A*02:19): 0.0932 µM
Kd (HLA-B*39:01 [13]; [28]): ≥ 20 µM
Kd (HLA-B*46:01 [17]): ≥ 20 µM
Kd (HLA-A*68:02): ≥ 20 µM
Kd (HLA-A*69:01 [18]): ≥ 20 µM
Kd (HLA-B*15:01 [19]): ≥ 20 µM
Kd (HLA-B*18:01 [20]): ≥ 20 µM
Kd (HLA-A*29:02): 3 µM
Kd (HLA-A*24:03 [21]; [28]): ≥ 20 µM

NWDWGVFFK
Kd (HLA-A*01:01; [29]): ≥ 20 µM
Kd (HLA-A*03:01 [3]; [29]): ≥ 20 µM
Kd (HLA-A*26:01 [14]; [29]): ≥ 20 µM
Kd (HLA-B*07:02; [29]): ≥ 20 µM
Kd (HLA-A*02:01; [29]): ≥ 20 µM
Kd (HLA-A*11:01; [30]): 0.0673 µM
Kd (HLA-B*08:01; [29]): ≥ 20 µM
Kd (HLA-B*58:01 [4]; [29]): ≥ 20 µM
Kd (HLA-B*40:01; [29]): ≥ 20 µM
Kd (HLA-A*30:01; [30]): 2.1 µM
Kd (HLA-A*69:01 [7]; [29]): ≥ 20 µM
Kd (HLA-B*15:01 [8]; [29]): ≥ 20 µM
Kd (HLA-B*27:05; [29]): ≥ 20 µM
Kd (HLA-A*24:03 [22]): ≥ 20 µM

CYPGYFADY
Kd (HLA-A*24:03 [21]; source organism: Influenza A virus (A/Harbin/1/1988(H1N2))): ≤ 0.001 µM

KHVQRIETW
Kd (HLA-B*58:01 [1]; source organism: Dengue virus 2 Jamaica/1409/1983): 0.145 µM

YGLGSTPLY
Kd (HLA-A*01:01; [31]): 14.1 µM
Kd (HLA-B*44:02 [2]; [31]): ≥ 20 µM
Kd (HLA-A*31:01; [31]): ≥ 20 µM
Kd (HLA-A*03:01 [3]; [31]): ≥ 20 µM
Kd (HLA-A*26:01 [14]; [31]): 5.87 µM
Kd (HLA-B*07:02; [31]): ≥ 20 µM
Kd (HLA-A*02:01; [31]): ≥ 20 µM
Kd (HLA-A*11:01; [31]): ≥ 20 µM
Kd (HLA-B*08:01; [31]): ≥ 20 µM
Kd (HLA-B*58:01 [4]; [31]): 10.4 µM
Kd (HLA-B*40:01; [31]): ≥ 20 µM
Kd (HLA-A*30:01; [31]): 3.59 µM
Kd (HLA-A*69:01 [7]; [31]): ≥ 20 µM
Kd (HLA-B*15:01 [8]; [31]): 0.332 µM
Kd (HLA-B*27:05; [31]): ≥ 20 µM
